Measurements reported in the MegaScale stability set (Tsuboyama et al. 2023).

B1: EEHEE_rd3_1049 (parent)
chain: TTVKLGDIKVTFDNPEKAKKYAQKLAKIYQLTVHVHGDTIHVK

Variants of: B1
Experiment: folding stability dG (cDNA display proteolysis); higher = more stable
Conditions: PBS, room temperature

In order of rising “folding stability dG” value:
1. TTVKLGDIKVTDDNPEKAKKYAQKLAKIYQLTVHVHGDTIHVK [F12D]  -0.148 kcal/mol
2. TTVKLGDIKVTADNPEKAKKYAQKLAKIYQLTVHVHGDTIHVK [F12A]  0.107 kcal/mol
3. TTVKLGDIKPTFDNPEKAKKYAQKLAKIYQLTVHVHGDTIHVK [V10P]  0.26 kcal/mol
4. TTVKLGDIKDTFDNPEKAKKYAQKLAKIYQLTVHVHGDTIHVK [V10D]  0.272 kcal/mol
5. TTVKLGDIKGTFDNPEKAKKYAQKLAKIYQLTVHVHGDTIHVK [V10G]  0.275 kcal/mol
6. TTVKLGDIKETFDNPEKAKKYAQKLAKIYQLTVHVHGDTIHVK [V10E]  0.411 kcal/mol
7. TTVKLGDIKNTFDNPEKAKKYAQKLAKIYQLTVHVHGDTIHVK [V10N]  0.575 kcal/mol
8. TTVKLGDIPVTFDNPEKAKKYAQKLAKIYQLTVHVHGDTIHVK [K9P]  0.591 kcal/mol
9. TTVKLGDIKSTFDNPEKAKKYAQKLAKIYQLTVHVHGDTIHVK [V10S]  0.658 kcal/mol
10. TTVKLGDIKQTFDNPEKAKKYAQKLAKIYQLTVHVHGDTIHVK [V10Q]  0.914 kcal/mol
11. TTVKLGDIKATFDNPEKAKKYAQKLAKIYQLTVHVHGDTIHVK [V10A]  0.985 kcal/mol
12. TTVKLGDIKHTFDNPEKAKKYAQKLAKIYQLTVHVHGDTIHVK [V10H]  1.06 kcal/mol
13. TTVKLGDIKTTFDNPEKAKKYAQKLAKIYQLTVHVHGDTIHVK [V10T]  1.12 kcal/mol
14. TTVKLGDIGVTFDNPEKAKKYAQKLAKIYQLTVHVHGDTIHVK [K9G]  1.25 kcal/mol
15. TTVKLGDIDVTFDNPEKAKKYAQKLAKIYQLTVHVHGDTIHVK [K9D]  1.28 kcal/mol
16. TTVKLGDIKKTFDNPEKAKKYAQKLAKIYQLTVHVHGDTIHVK [V10K]  1.72 kcal/mol
17. TTVKLGDINVTFDNPEKAKKYAQKLAKIYQLTVHVHGDTIHVK [K9N]  1.76 kcal/mol
18. TTVKLGDIKRTFDNPEKAKKYAQKLAKIYQLTVHVHGDTIHVK [V10R]  1.79 kcal/mol
19. TTVKLGDIKYTFDNPEKAKKYAQKLAKIYQLTVHVHGDTIHVK [V10Y]  1.95 kcal/mol
20. TTVKLGEIKVTFDNPEKAKKYAQKLAKIYQLTVHVHGDTIHVK [D7E]  1.97 kcal/mol
21. TTVKLGDIKMTFDNPEKAKKYAQKLAKIYQLTVHVHGDTIHVK [V10M]  2 kcal/mol
22. TTVKLGDIAVTFDNPEKAKKYAQKLAKIYQLTVHVHGDTIHVK [K9A]  2.06 kcal/mol
23. TTVKLGDIQVTFDNPEKAKKYAQKLAKIYQLTVHVHGDTIHVK [K9Q]  2.06 kcal/mol
24. TTVKLGDIHVTFDNPEKAKKYAQKLAKIYQLTVHVHGDTIHVK [K9H]  2.06 kcal/mol
25. TTVKLGDIKLTFDNPEKAKKYAQKLAKIYQLTVHVHGDTIHVK [V10L]  2.08 kcal/mol
26. TTVKLGDIRVTFDNPEKAKKYAQKLAKIYQLTVHVHGDTIHVK [K9R]  2.23 kcal/mol
27. TTVKLGDIFVTFDNPEKAKKYAQKLAKIYQLTVHVHGDTIHVK [K9F]  2.24 kcal/mol
28. TTVKLGDIEVTFDNPEKAKKYAQKLAKIYQLTVHVHGDTIHVK [K9E]  2.27 kcal/mol
29. TTVKLGPIKVTFDNPEKAKKYAQKLAKIYQLTVHVHGDTIHVK [D7P]  2.31 kcal/mol
30. TTVKLGDIMVTFDNPEKAKKYAQKLAKIYQLTVHVHGDTIHVK [K9M]  2.34 kcal/mol
31. TTVKLGDIKFTFDNPEKAKKYAQKLAKIYQLTVHVHGDTIHVK [V10F]  2.35 kcal/mol
32. TTVKLGDIVVTFDNPEKAKKYAQKLAKIYQLTVHVHGDTIHVK [K9V]  2.38 kcal/mol
33. TTVKLGGIKVTFDNPEKAKKYAQKLAKIYQLTVHVHGDTIHVK [D7G]  2.39 kcal/mol
34. TTVKLGDILVTFDNPEKAKKYAQKLAKIYQLTVHVHGDTIHVK [K9L]  2.39 kcal/mol
35. TTVKLGDIYVTFDNPEKAKKYAQKLAKIYQLTVHVHGDTIHVK [K9Y]  2.42 kcal/mol
36. TTVKLGDITVTFDNPEKAKKYAQKLAKIYQLTVHVHGDTIHVK [K9T]  2.42 kcal/mol
37. TTVKLGDISVTFDNPEKAKKYAQKLAKIYQLTVHVHGDTIHVK [K9S]  2.43 kcal/mol
38. TTVKLGDIIVTFDNPEKAKKYAQKLAKIYQLTVHVHGDTIHVK [K9I]  2.46 kcal/mol
39. TTVKLGDIWVTFDNPEKAKKYAQKLAKIYQLTVHVHGDTIHVK [K9W]  2.47 kcal/mol
40. TTVKLGDIKITFDNPEKAKKYAQKLAKIYQLTVHVHGDTIHVK [V10I]  2.48 kcal/mol
41. TTVKLGQIKVTFDNPEKAKKYAQKLAKIYQLTVHVHGDTIHVK [D7Q]  2.5 kcal/mol
42. TTVKLGVIKVTFDNPEKAKKYAQKLAKIYQLTVHVHGDTIHVK [D7V]  2.52 kcal/mol
43. TTVKLGTIKVTFDNPEKAKKYAQKLAKIYQLTVHVHGDTIHVK [D7T]  2.56 kcal/mol
44. TTVKLGAIKVTFDNPEKAKKYAQKLAKIYQLTVHVHGDTIHVK [D7A]  2.6 kcal/mol
45. TTVKLGMIKVTFDNPEKAKKYAQKLAKIYQLTVHVHGDTIHVK [D7M]  2.63 kcal/mol
46. TTVKLGIIKVTFDNPEKAKKYAQKLAKIYQLTVHVHGDTIHVK [D7I]  2.64 kcal/mol
47. TTVKLGLIKVTFDNPEKAKKYAQKLAKIYQLTVHVHGDTIHVK [D7L]  2.69 kcal/mol
48. TTVKLGSIKVTFDNPEKAKKYAQKLAKIYQLTVHVHGDTIHVK [D7S]  2.73 kcal/mol
49. TTVKLGHIKVTFDNPEKAKKYAQKLAKIYQLTVHVHGDTIHVK [D7H]  2.79 kcal/mol
50. TTVKLGFIKVTFDNPEKAKKYAQKLAKIYQLTVHVHGDTIHVK [D7F]  2.83 kcal/mol
51. TTVKLGNIKVTFDNPEKAKKYAQKLAKIYQLTVHVHGDTIHVK [D7N]  2.85 kcal/mol
52. TTVKLGDIKCTFDNPEKAKKYAQKLAKIYQLTVHVHGDTIHVK [V10C]  2.92 kcal/mol
53. TTVKLGYIKVTFDNPEKAKKYAQKLAKIYQLTVHVHGDTIHVK [D7Y]  2.94 kcal/mol
54. TTVKLGKIKVTFDNPEKAKKYAQKLAKIYQLTVHVHGDTIHVK [D7K]  3.17 kcal/mol
55. TTVKLGDIKWTFDNPEKAKKYAQKLAKIYQLTVHVHGDTIHVK [V10W]  3.21 kcal/mol
56. TTVKLGRIKVTFDNPEKAKKYAQKLAKIYQLTVHVHGDTIHVK [D7R]  3.21 kcal/mol
57. TTVKLGWIKVTFDNPEKAKKYAQKLAKIYQLTVHVHGDTIHVK [D7W]  3.24 kcal/mol
58. TTVKLGDICVTFDNPEKAKKYAQKLAKIYQLTVHVHGDTIHVK [K9C]  3.33 kcal/mol
59. TTVKLGCIKVTFDNPEKAKKYAQKLAKIYQLTVHVHGDTIHVK [D7C]  3.56 kcal/mol
